The supplement of paper PMC10567573

B1: TBX5 (parent)
chain: YQNHKITQLKIENNPFAKGFRGSD

Variants of: B1
Experiment: protein stability index of a GFP-peptide fusion (GPS, HEK-293T) (PSI 1-6); higher = more stable
Settings: c terminus: a fixed tail appended
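Further: lentivirally expressed fusions sorted by FACS into six bins by GFP to DsRed ratio, PSI derived from sequencing read proportions per bin multiplied by bin number.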

Row | Variant | protein stability index
1 | E12M | 2.35
2 | E12R | 1.98
3 | E12S | 2.11
4 | E12W | 1.49
5 | E12L | 2.17
6 | E12Q | 2.22
7 | E12A | 2.32
8 | E12D | 2.94
9 | E12F | 1.7
10 | E12H | 2.3
11 | E12V | 1.91
12 | E12K | 1.84
13 | E12T | 2.75
14 | E12C | 1.73
15 | E12Y | 1.69
16 | E12P | 2.63
17 | E12I | 1.81
18 | E12N | 2.51
19 | E12G | 2.01
20 | L9A | 2.83
21 | L9E | 3.09
22 | L9V | 4.05
23 | L9S | 3.07
24 | L9I | 2.73

Row | Variant | protein stability index
25 | L9D | 3.21
26 | L9M | 2.58
27 | L9K | 2.81
28 | L9Q | 3.19
29 | L9G | 2.35
30 | L9N | 3.01
31 | L9H | 2.38
32 | L9P | 2.84
33 | L9R | 3.54
34 | L9C | 2.02
35 | L9F | 2.26
36 | L9Y | 2.31
37 | L9W | 1.71
38 | L9T | 2.37
39 | K10N | 2.46
40 | K10R | 2.58
41 | K10I | 1.63
42 | K10Q | 2.5
43 | K10P | 3.2
44 | K10T | 2.74
45 | K10L | 2.03
46 | K10M | 2.23
47 | K10C | 2.11
48 | K10W | 1.95

Row | Variant | protein stability index
49 | K10Y | 2.17
50 | K10D | 2.68
51 | K10H | 2.2
52 | K10E | 3.11
53 | K10A | 2.91
54 | K10G | 1.85
55 | K10V | 2.02
56 | K10S | 2.79
57 | K10F | 1.81
58 | I11Y | 2.83
59 | I11C | 2.48
60 | I11E | 3.23
61 | I11S | 2.96
62 | I11N | 2.59
63 | I11H | 2.33
64 | I11F | 2.25
65 | I11L | 2.62
66 | I11V | 2.58
67 | I11R | 2.71
68 | I11M | 2.64
69 | I11Q | 2.58
70 | I11K | 2.52
71 | I11W | 2.34
72 | I11G | 2.47

Row | Variant | protein stability index
73 | I11D | 3.27
74 | I11A | 2.36
75 | I11T | 2.71
76 | I11P | 2.71
77 | T7I | 2.5
78 | T7G | 2.12
79 | T7P | 2.85
80 | T7R | 2.48
81 | T7M | 2.21
82 | T7A | 2.15
83 | T7C | 1.94
84 | T7H | 2.77
85 | T7L | 2.3
86 | T7Q | 2.63
87 | T7Y | 2.37
88 | T7N | 2.59
89 | T7W | 3.51
90 | T7K | 3.31
91 | T7S | 2.46
92 | T7V | 2.29
93 | T7D | 2.69
94 | T7F | 1.61
95 | T7E | 3.32
96 | I6N | 3.09

Row | Variant | protein stability index
97 | I6Q | 2.98
98 | I6A | 3.47
99 | I6R | 2.79
100 | I6E | 3.16
101 | I6W | 4.36
102 | I6D | 3.53
103 | I6P | 2.8
104 | I6L | 2.45
105 | I6C | 2.36
106 | I6F | 2.45
107 | I6T | 3.06
108 | I6Y | 2.53
109 | I6H | 2.83
110 | I6S | 3.04
111 | I6K | 3.27
112 | I6M | 2.7
113 | I6G | 2.3
114 | I6V | 2.4
115 | H4V | 2.68
116 | H4Y | 2.15
117 | H4W | 2.89
118 | H4R | 2.77
119 | H4S | 2.62
120 | H4P | 2.58

Row | Variant | protein stability index
121 | H4N | 2.87
122 | H4Q | 2.66
123 | H4T | 2.44
124 | K5G | 2.57
125 | K5Y | 1.95
126 | K5A | 2.7
127 | K5C | 2.15
128 | K5E | 2.98
129 | K5D | 3.06
130 | K5Q | 2.81
131 | K5P | 2.77
132 | K5I | 1.51
133 | K5W | 2.64
134 | K5N | 2.59
135 | K5M | 2
136 | K5F | 1.84
137 | K5V | 2.44
138 | K5H | 2.03
139 | K5T | 2.44
140 | K5L | 2.18
141 | K5S | 2.21
142 | K5R | 2.38
143 | N13E | 2.36
144 | N13D | 2.48

Row | Variant | protein stability index
145 | N13A | 2.17
146 | N13G | 1.81
147 | N13C | 2.31
148 | N13F | 1.94
149 | Q8H | 2.41
150 | Q8G | 2.73
151 | Q8I | 2.06
152 | Q8W | 1.57
153 | Q8A | 2.79
154 | Q8F | 1.7
155 | Q8T | 2.19
156 | Q8K | 2.28
157 | Q8L | 1.41
158 | Q8S | 2.13
159 | Q8D | 2.75
160 | Q8R | 1.99
161 | Q8C | 1.91
162 | Q8V | 2.49
163 | Q8M | 2.2
164 | Q8E | 2.97
165 | Q8Y | 1.57
166 | Q8P | 2.41
167 | Q8N | 2.4
